According to the supplement of paper PMC9112550, “Optimization of the antimicrobial peptide Bac7 by deep mutational scanning” (BMC Biology, 2022):

Tested on: Escherichia coli TOP10
Experiment: shrunken log2 fold change of peptide-encoding DNA abundance (4.5 h post-induction vs induction); higher = less antimicrobial activity (less host growth inhibition)
Settings: time post-induction: 4.5 h; library: site-saturation at positions 5, 18, 19, 20
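Further: peptides expressed intracellularly from a pBAD plasmid library in pooled LB shake-flask culture, induced with 0.3% L-arabinose, DNA abundance read by NGS, three biological replicates, DESeq2 with apeglm shrinkage.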

Sequence | shrunken log2 fold change
RRIRNRPPRLPRPRPRPGCCPRP | -0.0641
RRIRYRPPRLPRPRPRPHVEPRP | 0.0184
RRIRNRPPRLPRPRPRPNIIPRP | -0.784
RRIRVRPPRLPRPRPRPHPLPRP | -0.435
RRIRGRPPRLPRPRPRPKTTPRP | 0.521
RRIRKRPPRLPRPRPRPALFPRP | 0.497
RRIRHRPPRLPRPRPRPLCRPRP | 0.0244
RRIRFRPPRLPRPRPRPETAPRP | 0.577
RRIRNRPPRLPRPRPRPNQGPRP | -0.338
RRIRSRPPRLPRPRPRPFMGPRP | -0.216
RRIRWRPPRLPRPRPRPIPQPRP | 0.254
RRIRMRPPRLPRPRPRPTKKPRP | 0.0359
RRIRRRPPRLPRPRPRPTPIPRP | 1.03
RRIRMRPPRLPRPRPRPPAFPRP | 0.82
RRIRTRPPRLPRPRPRPQINPRP | -0.348
RRIRCRPPRLPRPRPRPIHVPRP | -0.377
RRIRERPPRLPRPRPRPGCPPRP | 0.0137
RRIRDRPPRLPRPRPRPARPPRP | 0.569
RRIRYRPPRLPRPRPRPITPPRP | -0.174
RRIRFRPPRLPRPRPRPWRIPRP | -0.0447
RRIRWRPPRLPRPRPRPHCLPRP | 0.0644
RRIRYRPPRLPRPRPRPGSCPRP | -0.308

Sequence | shrunken log2 fold change
RRIRPRPPRLPRPRPRPYQDPRP | -0.025
RRIRNRPPRLPRPRPRPNNWPRP | -0.0773
RRIRKRPPRLPRPRPRPTLIPRP | -0.0752
RRIRHRPPRLPRPRPRPIRCPRP | -0.115
RRIRYRPPRLPRPRPRPAVFPRP | -0.0965
RRIRMRPPRLPRPRPRPTHIPRP | -0.363
RRIRRRPPRLPRPRPRPVPVPRP | 0.128
RRIRCRPPRLPRPRPRPYEDPRP | -0.01
RRIRKRPPRLPRPRPRPGHDPRP | 0.141
RRIRFRPPRLPRPRPRPFWSPRP | -0.0458
RRIRMRPPRLPRPRPRPFHNPRP | -0.00804
RRIRNRPPRLPRPRPRPDPMPRP | -0.177
RRIRTRPPRLPRPRPRPIWFPRP | -0.033
RRIRQRPPRLPRPRPRPYNIPRP | -0.395
RRIRRRPPRLPRPRPRPSGCPRP | 0.212
RRIRSRPPRLPRPRPRPNQCPRP | -0.215
RRIRFRPPRLPRPRPRPCWIPRP | -0.354
RRIRPRPPRLPRPRPRPCCCPRP | 0.368
RRIRHRPPRLPRPRPRPQPIPRP | -0.13
RRIRMRPPRLPRPRPRPKYSPRP | -0.326
RRIRTRPPRLPRPRPRPDMVPRP | -0.00822
RRIRSRPPRLPRPRPRPEMAPRP | 1.22

Sequence | shrunken log2 fold change
RRIRMRPPRLPRPRPRPEQSPRP | 3.19
RRIRRRPPRLPRPRPRPMTEPRP | 0.0575
RRIRNRPPRLPRPRPRPKFWPRP | 0.177
RRIRKRPPRLPRPRPRPLFKPRP | 0.11
RRIRKRPPRLPRPRPRPRMYPRP | 0.155
RRIRNRPPRLPRPRPRPVAYPRP | 0.0201
RRIRVRPPRLPRPRPRPSYTPRP | -0.27
RRIRYRPPRLPRPRPRPQACPRP | 0.00187
RRIRSRPPRLPRPRPRPKFIPRP | -0.482
RRIRWRPPRLPRPRPRPFRKPRP | -0.351
RRIRKRPPRLPRPRPRPEFNPRP | 0.15
RRIRERPPRLPRPRPRPCYEPRP | -0.0528
RRIRGRPPRLPRPRPRPTRMPRP | 0.571
RRIRPRPPRLPRPRPRPGHDPRP | 0.235
RRIRLRPPRLPRPRPRPSRIPRP | -0.15
RRIRGRPPRLPRPRPRPFKLPRP | -0.167
RRIRPRPPRLPRPRPRPIDHPRP | 0.0529
RRIRKRPPRLPRPRPRPQPKPRP | 0.19
RRIRKRPPRLPRPRPRPLWPPRP | 0.46
RRIRKRPPRLPRPRPRPKHSPRP | -0.147
RRIRRRPPRLPRPRPRPRYNPRP | -0.132
RRIRDRPPRLPRPRPRPVNVPRP | -0.96

Sequence | shrunken log2 fold change
RRIRTRPPRLPRPRPRPETFPRP | -0.4
RRIRWRPPRLPRPRPRPVAWPRP | 0.489
RRIRVRPPRLPRPRPRPHKSPRP | 0.0325
RRIRDRPPRLPRPRPRPVAEPRP | 1.16
RRIRKRPPRLPRPRPRPYNCPRP | 0.00529
RRIRPRPPRLPRPRPRPIRIPRP | -0.149
RRIRWRPPRLPRPRPRPQIMPRP | -0.0336
RRIRLRPPRLPRPRPRPNRYPRP | 0.0611
RRIRHRPPRLPRPRPRPDQWPRP | -0.108
RRIRARPPRLPRPRPRPKHDPRP | 0.263
RRIRCRPPRLPRPRPRPSEYPRP | -0.497
RRIRRRPPRLPRPRPRPASVPRP | 0.267
RRIRQRPPRLPRPRPRPWRNPRP | -0.00208
RRIRCRPPRLPRPRPRPGEMPRP | 0.438
RRIRMRPPRLPRPRPRPDYWPRP | 0.441
RRIRLRPPRLPRPRPRPIHLPRP | -0.453
RRIRSRPPRLPRPRPRPLGHPRP | -0.051
RRIRKRPPRLPRPRPRPYQSPRP | 0.000846
RRIRYRPPRLPRPRPRPHDQPRP | -0.188
RRIRSRPPRLPRPRPRPTSGPRP | 0.194
RRIRARPPRLPRPRPRPVAEPRP | 0.871
RRIRKRPPRLPRPRPRPHSEPRP | -0.0169

Sequence | shrunken log2 fold change
RRIRPRPPRLPRPRPRPKSWPRP | 0.258
RRIRHRPPRLPRPRPRPNHAPRP | -0.223
RRIRQRPPRLPRPRPRPQMIPRP | -0.0977
RRIRYRPPRLPRPRPRPNYRPRP | -0.306
RRIRYRPPRLPRPRPRPQLHPRP | -0.395
RRIRHRPPRLPRPRPRPNKLPRP | -1.05
RRIRPRPPRLPRPRPRPWENPRP | -0.0456
RRIRARPPRLPRPRPRPMMGPRP | 0.082
RRIRMRPPRLPRPRPRPGLLPRP | 0.251
RRIRLRPPRLPRPRPRPYPQPRP | -0.364
RRIRARPPRLPRPRPRPNEWPRP | 0.0144
RRIRMRPPRLPRPRPRPSCLPRP | -0.0926
RRIRLRPPRLPRPRPRPMMAPRP | -0.137
RRIRVRPPRLPRPRPRPSSHPRP | -0.344
RRIRLRPPRLPRPRPRPDAQPRP | 0.34
RRIRMRPPRLPRPRPRPSEHPRP | 0.0665
RRIRARPPRLPRPRPRPQPYPRP | -0.3
RRIRPRPPRLPRPRPRPWWLPRP | -0.0379
RRIRIRPPRLPRPRPRPWTEPRP | -0.843
RRIRVRPPRLPRPRPRPFDPPRP | -0.0153
RRIRKRPPRLPRPRPRPEDMPRP | 0.0387
